According to the RNAGym collection of RNA variant scans (doi:10.7554/elife.80360):

B1: Hairpin Ribozyme (parent)
chain: GUCCUCUUUCACGUGCGCGUGAAAGAGAGAAGUGAACCAGAGAAACACACGUUGUGGUAUAUUACCUGGUA

Variants of: B1
Assay: self-cleavage, relative activity (ratio to wild type); higher = more cleavage; co-transcriptional

| Variant | self-cleavage |
| --- | --- |
| A30C C46A | 0.0713 |
| A30C C46G | 0.0771 |
| G29U A31C | 0.2 |
| G29U A31U | 0.151 |
| G29U A31G | 0.167 |
| A30C A49U | 0.154 |
| A30C A49G | 0.123 |
| A30C A49C | 0.0983 |
| A30G U70C | 0.0846 |
| A30G U70A | 0.0747 |
| A30G U70G | 0.262 |
| A28G A45G | 0.242 |
| A30G U58C | 0.0836 |
| A28C G51A | 0.517 |
| A28C G51C | 0.336 |
| A30G C50A | 0.0824 |
| A30G C50U | 0.0809 |
| A30G A41G | 0.112 |
| A30C A45U | 0.0541 |
| A30C A45G | 0.194 |
| A28C A31G | 0.333 |
| A28C A31U | 0.107 |
| A28U A59C | 0.0961 |
| A28U A59U | 0.185 |

| Variant | self-cleavage |
| --- | --- |
| A28G A43U | 0.123 |
| A28G A43G | 0.158 |
| G29A C50G | 0.187 |
| G29U U55G | 0.062 |
| G29U U55C | 0.0858 |
| G29U U55A | 0.0925 |
| A30C G32A | 0.145 |
| A28C G32C | 0.121 |
| A28C G32U | 0.0817 |
| A30G A31G | 0.157 |
| G29U U58G | 0.168 |
| A30G C65G | 0.204 |
| A30G C65A | 0.148 |
| A30C U62C | 0.0331 |
| G29U C37G | 0.0458 |
| G29C A31U | 0.0962 |
| G29U U63G | 0.103 |
| A28U A35U | 0.505 |
| G29U G56C | 0.162 |
| A28C A59G | 0.117 |
| A28C A59U | 0.14 |
| G29U A49G | 0.173 |
| G29U A49C | 0.14 |
| G29C C65A | 0.204 |

| Variant | self-cleavage |
| --- | --- |
| G29C C65G | 0.209 |
| A28G G29U | 0.0365 |
| G29C G56C | 0.0545 |
| G29C G56A | 0.0331 |
| A28C G34C | 1.5 |
| A28G U52C | 0.763 |
| A28G U52G | 0.948 |
| G29C A39U | 0.0768 |
| G29C A59G | 0.0639 |
| G29C A59C | 0.205 |
| A28G A44G | 0.222 |
| G29A U62G | 0.21 |
| A30C U53G | 0.284 |
| A30C U53C | 0.203 |
| G29C U60A | 0.139 |
| G29C U60C | 0.164 |
| A30C C48U | 0.17 |
| G29C A35G | 0.178 |
| A28G A31U | 0.0204 |
| A28G A31G | 0.416 |
| G29C G54C | 0.0908 |
| G29C G54A | 0.1 |
| A28C U55C | 0.216 |
| A28C U55G | 0.217 |

| Variant | self-cleavage |
| --- | --- |
| A28U A71G | 0.673 |
| G29U C46A | 0.089 |
| G29U C46U | 0.124 |
| G29C A36G | 0.18 |
| A28U G54U | 0.3 |
| A30C U33G | 0.0878 |
| A30C U33C | 0.1 |
| A28C G56C | 0.101 |
| A30G G68U | 0.169 |
| A28C U63C | 0.251 |
| A28C U63G | 0.176 |
| G29C G34C | 0.116 |
| A28U G29A | 0.0881 |
| A30C A43U | 0.128 |
| A28C A43U | 0.148 |
| A28C A43C | 0.125 |
| A28U G40C | 0.0881 |
| A28G A61C | 0.434 |
| A28G A61U | 0.182 |
| A30G A36U | 0.152 |
| A30C A31U | 0.129 |
| A28G A36G | 1.16 |
| A30G A61C | 0.109 |
| A28G G54U | 0.541 |

| Variant | self-cleavage |
| --- | --- |
| A30C A47U | 0.105 |
| A30C U60G | 0.181 |
| G29U U33G | 0.0639 |
| A30C U63C | 0.0293 |
| A28C U67A | 0.135 |
| A28C U67G | 0.184 |
| A30C A44C | 0.0571 |
| A28G G42U | 0.375 |
| A28C G68C | 0.309 |
| G29C U53G | 0.0421 |
| G29C U53A | 0.116 |
| A28G U67C | 0.276 |
| G29C G68U | 0.125 |
| A28G G34A | 1.25 |
| A28U C46A | 0.0952 |
| G29C U62A | 0.13 |
| G29C U62G | 0.18 |
| A28G G32C | 0.119 |
| G29C A43G | 0.261 |
| A28U G69A | 0.137 |
| A28U G69U | 0.0991 |
| G29U A59G | 0.0822 |
| G29U A59U | 0.104 |
| A30C A41G | 0 |

| Variant | self-cleavage |
| --- | --- |
| G29A U53A | 0.109 |
| G29C U33A | 0.0541 |
| G29A A71C | 0.295 |
| G29A A71G | 0.112 |
| G29U U62A | 0.103 |
| G29U U62C | 0.0779 |
| A28U G51C | 0.49 |
| A28U G51U | 0.485 |
| G29U U52G | 0.0467 |
| A28U C66G | 0.302 |
| A28U C66U | 0.207 |
| A28U U60A | 0.493 |
| A28U A31U | 0.138 |
| A28C C48G | 0.128 |
| A28G U70C | 0.859 |
| A28U U58A | 0.36 |
| A28G A71U | 0.771 |
| A28U G57C | 0.113 |
| G29A G68U | 0.306 |
| G29A G68A | 0.125 |
| G29A G68C | 0.143 |
| A30U A36U | 0.0371 |
| G29U U60G | 0.17 |
| A28C C66U | 0.227 |

| Variant | self-cleavage |
| --- | --- |
| A28C C66G | 0.197 |
| G29A C65U | 0.145 |
| A28U A45G | 0.121 |
| A28G C50G | 0.467 |
| A28G C50U | 0.439 |
| G29A G32A | 0.181 |
| A28U A39C | 0.337 |
| A28U U67G | 0.201 |
| A30G G51C | 0.199 |
| G29A C66G | 0.0855 |
| A30C U70G | 0.0924 |
| A28G U60A | 0.661 |
| G29C G40U | 0.171 |
| A28G U62G | 0.183 |
| A28G U62A | 0.287 |
| G29C U63G | 0.0807 |
| G29U A36G | 0.275 |
| G29U A36C | 0.101 |
| A30C G57U | 0.266 |
| A28G G69A | 0.48 |
| A28C | 0.497 |
| A28U | 0.656 |
| A28G | 1.12 |
